The text below walks through data of paper PMC314469, “Protein Interaction Networks by Proteome Peptide Scanning” (PLoS Biology, 2004).

Experiment [1] addresses endophilin SH3 (SH3G2_HUMAN), Q99962. The experiment in a line: SPOT array.
Experiment [2] addresses T1, amphyphisin SH3 (AMPH_HUMAN), P49418.
T1 chain: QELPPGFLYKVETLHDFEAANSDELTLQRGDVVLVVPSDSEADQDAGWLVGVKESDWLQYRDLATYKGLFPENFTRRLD
The experiment is described as follows: SPOT array.

B1: O94844 155-168 (peptide)
chain: ARRPLARPIKRGDI
Consider B1, for which the normalised SPOT signal, Boehringer light units (BLU); mean over the file's lines of this peptide in experiment [1] was found to be 265; in experiment [2], 227.

B2: Q9BR43 91-104 (peptide)
chain: PSYHILRPSRNQDL
In the case of B2, the values for the normalised SPOT signal, Boehringer light units (BLU); mean over the file's lines of this peptide in experiment [1] and in experiment [2] were 426 and 412, respectively.

B3: Q9NPU4 88-101 (peptide)
chain: PEVGPWRPKRLSGV
Consider B3, for which the normalised SPOT signal, Boehringer light units (BLU); mean over the file's lines of this peptide in experiment [1] was 2400; in experiment [2] it was 4730.

B4: Q9UGB8 1078-1091 (peptide)
chain: PDPGFLRPQRAALY
On to B4, for which the normalised SPOT signal, Boehringer light units (BLU); mean over the file's lines of this peptide in experiment [1] was 310; in experiment [2], 986.

B5: O75048 890-903 (peptide)
chain: PFFAPKRPFFPPRY
Take B5: the normalised SPOT signal, Boehringer light units (BLU); mean over the file's lines of this peptide in experiment [1] was found to be 3080; in experiment [2] it was 215.

B6: Q9UIC6 53-66 (peptide)
chain: ARRLLVRPARLRRH
In the case of B6, the normalised SPOT signal, Boehringer light units (BLU); mean over the file's lines of this peptide in experiment [1] was 67.4; in experiment [2], 1340.

B7: Q13393 385-398 (peptide)
chain: PEIFLKRPVVEGNR
On to B7, for which the normalised SPOT signal, Boehringer light units (BLU); mean over the file's lines of this peptide is 95.5 in experiment [1] and 32.1 in experiment [2].

B8: O75048 874-887 (peptide)
chain: PFHSLKRPRPPFAR
Turning to B8, the normalised SPOT signal, Boehringer light units (BLU); mean over the file's lines of this peptide stood at 228 in experiment [1] and 65.6 in experiment [2].

B9: O00156 318-331 (peptide)
chain: PFRALKRPLQFLGL
Turning to B9, the normalised SPOT signal, Boehringer light units (BLU); mean over the file's lines of this peptide in experiment [1] came out at 63.7; in experiment [2], 28.1.

B10: P55060 21-34 (peptide)
chain: PDPAIRRPAEKFLE
For the molecule B10, the normalised SPOT signal, Boehringer light units (BLU); mean over the file's lines of this peptide worked out at 52.2 in experiment [1] and 35.9 in experiment [2].

B11: Q06587 167-180 (peptide)
chain: PGPAPKRPRGGGAG
Consider B11, for which the normalised SPOT signal, Boehringer light units (BLU); mean over the file's lines of this peptide in experiment [1] worked out at 348; in experiment [2], 38.5.

B12: Q9H5N7 170-183 (peptide)
chain: AARGLRRPEDSSRK
In the case of B12, the normalised SPOT signal, Boehringer light units (BLU); mean over the file's lines of this peptide in experiment [1] was 3.6; in experiment [2], 18.

B13: Q9NUE8 153-166 (peptide)
chain: PEDAPKRPKEAAPD
As to B13, the figures for the normalised SPOT signal, Boehringer light units (BLU); mean over the file's lines of this peptide in experiment [1] and in experiment [2] were 23.2 and 19.3, respectively.

B14: Q14289 406-419 (peptide)
chain: PDETLRRPGGPQYG
B14: the normalised SPOT signal, Boehringer light units (BLU); mean over the file's lines of this peptide in experiment [1] came to 12.2; in experiment [2] it was 24.5.

B15: Q96Q04 1263-1277 (peptide)
chain: PGPGPRRPPWEGAD
On to B15, for which the normalised SPOT signal, Boehringer light units (BLU); mean over the file's lines of this peptide in experiment [1] was found to be 523; in experiment [2], 25.

B16: O94825 179-192 (peptide)
chain: ARRPLARPIKPNEI
On to B16, for which the normalised SPOT signal, Boehringer light units (BLU); mean over the file's lines of this peptide was 136 in experiment [1] and 92.1 in experiment [2].

B17: Q9C0C1 1172-1185 (peptide)
chain: PDVWLRRPSTHTSG
With B17, the results for the normalised SPOT signal, Boehringer light units (BLU); mean over the file's lines of this peptide in experiment [1] and in experiment [2] were 242 and 60.1, respectively.

B18: Q99640 37-50 (peptide)
chain: PGFSLKRPRGLSRS
Take B18: the normalised SPOT signal, Boehringer light units (BLU); mean over the file's lines of this peptide in experiment [1] was 41.8; in experiment [2], 40.1.

B19: Q96BF6 185-198 (peptide)
chain: PGLAPKRPLETGPR
For the molecule B19, the normalised SPOT signal, Boehringer light units (BLU); mean over the file's lines of this peptide in experiment [1] is 1350; in experiment [2], 31.4.

B20: Q9UGX2 21-34 (peptide)
chain: PESEIERPERLTAA
Turning to B20, the normalised SPOT signal, Boehringer light units (BLU); mean over the file's lines of this peptide in experiment [1] stood at 281; in experiment [2] it was 124.

B21: P51511 326-340 (peptide)
chain: PDHRPPRPPQPPPP
Consider B21, for which the results for the normalised SPOT signal, Boehringer light units (BLU); mean over the file's lines of this peptide in experiment [1] and in experiment [2] were 1370 and 548, respectively.

B22: P51511 339-353 (peptide)
chain: PGGKPERPPKPGPP
On to B22, for which the normalised SPOT signal, Boehringer light units (BLU); mean over the file's lines of this peptide was determined as 4460 in experiment [1] and 570 in experiment [2].

B23: Q16538 521-534 (peptide)
chain: PGHSPRRPRPLGLS
Take B23: the normalised SPOT signal, Boehringer light units (BLU); mean over the file's lines of this peptide in experiment [1] worked out at 2830; in experiment [2], 45.1.

B24: O15209 277-290 (peptide)
chain: PGAGLRRPTYTPPS
Take B24: the normalised SPOT signal, Boehringer light units (BLU); mean over the file's lines of this peptide worked out at 171 in experiment [1] and 31.8 in experiment [2].

B25: Q9BYN7 703-717 (peptide)
chain: PEAVPGKPPFAEPD
For B25, the normalised SPOT signal, Boehringer light units (BLU); mean over the file's lines of this peptide in experiment [1] worked out at 63.8; in experiment [2], 71.4.

B26: P13862 172-185 (peptide)
chain: PEYRPKRPANQFVP
On to B26, for which the normalised SPOT signal, Boehringer light units (BLU); mean over the file's lines of this peptide in experiment [1] was determined as 238; in experiment [2], 24.8.

B27: Q01459 44-57 (peptide)
chain: PEPELSRPIRHHPD
Take B27: the normalised SPOT signal, Boehringer light units (BLU); mean over the file's lines of this peptide in experiment [1] was found to be 116; in experiment [2], 98.6.

B28: Q16378 41-55 (peptide)
chain: PDQGPQRPPPEGLL
For B28, the normalised SPOT signal, Boehringer light units (BLU); mean over the file's lines of this peptide is 62.3 in experiment [1] and 24.4 in experiment [2].

B29: Q8WXD9 428-442 (peptide)
chain: PGDSPAKPPEGSAG
Regarding B29, the normalised SPOT signal, Boehringer light units (BLU); mean over the file's lines of this peptide stood at 72.5 in experiment [1] and 52.2 in experiment [2].

B30: O14939 368-381 (peptide)
chain: PEVYLKRPAHSDDW
As to B30, the figures for the normalised SPOT signal, Boehringer light units (BLU); mean over the file's lines of this peptide in experiment [1] and in experiment [2] were 28.5 and 33, respectively.

B31: Q9BXY2 295-308 (peptide)
chain: PERLLLRPARIRAD
For B31, the normalised SPOT signal, Boehringer light units (BLU); mean over the file's lines of this peptide in experiment [1] came to 106; in experiment [2], 1020.

B32: Q9NUE2 170-183 (peptide)
chain: PFGQLKRPRRNGLG
Take B32: the normalised SPOT signal, Boehringer light units (BLU); mean over the file's lines of this peptide is 67.8 in experiment [1] and 510 in experiment [2].

B33: P58401 8-21 (peptide)
chain: PGGSPRRPPALAGP
B33: the normalised SPOT signal, Boehringer light units (BLU); mean over the file's lines of this peptide in experiment [1] came to 241; in experiment [2] it was 46.4.

B34: Q13480 337-351 (peptide)
chain: PDIPPPRPPKPHPA
Regarding B34, the normalised SPOT signal, Boehringer light units (BLU); mean over the file's lines of this peptide in experiment [1] was 6240; in experiment [2], 635.

B35: Q13577 1110-1123 (peptide)
chain: PGEHPGRPGRGGSV
With B35, the normalised SPOT signal, Boehringer light units (BLU); mean over the file's lines of this peptide in experiment [1] was determined as 31.7; in experiment [2] it was 414.

B36: Q9BW18 356-370 (peptide)
chain: PGPFPPRPPGPLGP
B36: the normalised SPOT signal, Boehringer light units (BLU); mean over the file's lines of this peptide in experiment [1] is 1930; in experiment [2], 68.3.

B37: Q9P2I2 89-102 (peptide)
chain: PGNIPQRPDRLPMS
As for B37, the results for the normalised SPOT signal, Boehringer light units (BLU); mean over the file's lines of this peptide in experiment [1] and in experiment [2] were 360 and 2130, respectively.

B38: O60610 754-767 (peptide)
chain: PEVQLRRPNWSKLV
In the case of B38, the normalised SPOT signal, Boehringer light units (BLU); mean over the file's lines of this peptide was 152 in experiment [1] and 35.6 in experiment [2].
